Laboratory results taken from US20250188434A1 (VERRA THERAPEUTICS, published 2025).
Numbering of substitutions follows the chain as printed.

B1: 25-2 (SEQ ID NO: 22), as labelled in Table 5 (peptide)
chain: GSCGSARPGFQQTSHLSSYEIITPWRLTRERAEAPRPYSKQVSYVIQAEGKEHIIHLERNKDLLPEDFVVYTYNKEGTLITDHPNIQNHSHYRGYVEGVHNSSIALSDSFGLRGLLHLENASYGIEPLQNSSHFEHIIYRMDDVYKEPLKSGVSNKDIEKETAKDEEEEPPSMTQLLRR
B2: 25-3 (SEQ ID NO: 23), as labelled in Table 5 (peptide)
chain: ARPGFQQTSHLSSYEIITPWRLTRERAEAPRPYSKQVSYVIQAEGKEHIIHLERNKDLLPEDFVVYTYNKEGTLITDHPNIQNHSHYRGYVEGVHNSSIALSDSFGLRGLLHLENASYGIEPLQNSSHFEHIIYRMDDVYKEPLKSGVSNKDIEKETAKDEEEEPPSMTQLLRRGSGSC
B3: wild type human ADAM9 prodomain peptide (SEQ ID NO: 2) (peptide)
chain: ARPGFQQTSHLSSYEIITPWRLTRERREAPRPYSKQVSYVIQAEGKEHIIHLERNKDLLPEDFVVYTYNKEGTLITDHPNIQNHCHYRGYVEGVHNSSIALSDCFGLRGLLHLENASYGIEPLQNSSHFEHIIYRMDDVYKEPLKCGVSNKDIEKETAKDEEEEPPSMTQLLRR
B4: modified ADAM9 prodomain peptide SEQ ID NO: 12 (peptide)
chain: B3 chain with R27A, C85S, C104S, C146S
B5: 25-1 (SEQ ID NO: 21), as labelled in Table 5 (peptide)
chain: B3 chain with R27A, C85S, C104S
B6: pegylated SEQ ID NO: 22 (peptide)
chain: B1 chain
modifications: pegylated at the N-terminus, on the cysteine of the added N-terminal pentapeptide (PEG size not stated for this construct)
B7: pegylated SEQ ID NO: 20 (peptide)
chain: B2 chain with R26A, A27R
modifications: 20 kDa maleimide PEG on the cysteine of the pentapeptide added to the C-terminus
B8: pegylated SEQ ID NO: 23 (peptide)
chain: B2 chain
modifications: pegylated at the C-terminus, on the cysteine of the added C-terminal pentapeptide (PEG size not stated for this construct)
B9: modified ADAM9 prodomain peptide SEQ ID NO: 17 (peptide)
chain: QTSHLSSYEIITPWRLTRERAEAPRPYSKQVSYVIQAEGKEHIIHLERNKDLLPEDFVVYTYNKEGTLITDHPNIQNHSHYRGYVEGVHNSSIALSDSFGLRGLLHLENASYGIEPLQNSSHFEHIIYRMDDVYKEPLKSGVSNKDIEKETAKDEEEEPPSMTQLLRR
B10: modified ADAM9 prodomain peptide SEQ ID NO: 19 (peptide)
chain: B3 chain with R27A, C85S, C104S, C146S, E161N, E163N
B11: modified ADAM9 prodomain peptide SEQ ID NO: 14 (peptide)
chain: B3 chain with R26A, D62A, C85S, C104S, C146S
B12: modified ADAM9 prodomain peptide SEQ ID NO: 18 (peptide)
chain: B3 chain with R27A, C85S, C104S, D138S, C146S
B13: modified ADAM9 prodomain peptide SEQ ID NO: 11 (peptide)
chain: B3 chain with R24A, C85S, C104S, C146S
B14: modified ADAM9 prodomain peptide SEQ ID NO: 13 (peptide)
chain: B3 chain with C85S, C104S, C146S
B15: Chemically modified SEQ ID NO: 2 (wild type ADAM9 prodomain labelled with ALEXA FLUOR 647 maleimide ester) (peptide)
chain: B3 chain
modifications: ALEXA FLUOR 647 brand maleimide ester on its three cysteines (85, 104 and 146 of SEQ ID NO: 2)
B16: pegylated SEQ ID NO: 21 (peptide)
chain: B3 chain with R27A, C85S, C104S
modifications: pegylated at cysteine 146 (PEG size not stated for this construct)
B17: modified ADAM9 prodomain peptide SEQ ID NO: 10 (peptide)
chain: B3 chain with R26A, C85S, C104S, C146S
B18: modified ADAM9 prodomain peptide SEQ ID NO: 16 (peptide)
chain: B3 chain with R27S, C85S, C104S, C146S

Biological target: T1, Human Meprin beta (human, UniProt Q16820 62-652, limits assumed)
T1 sequence (looked up): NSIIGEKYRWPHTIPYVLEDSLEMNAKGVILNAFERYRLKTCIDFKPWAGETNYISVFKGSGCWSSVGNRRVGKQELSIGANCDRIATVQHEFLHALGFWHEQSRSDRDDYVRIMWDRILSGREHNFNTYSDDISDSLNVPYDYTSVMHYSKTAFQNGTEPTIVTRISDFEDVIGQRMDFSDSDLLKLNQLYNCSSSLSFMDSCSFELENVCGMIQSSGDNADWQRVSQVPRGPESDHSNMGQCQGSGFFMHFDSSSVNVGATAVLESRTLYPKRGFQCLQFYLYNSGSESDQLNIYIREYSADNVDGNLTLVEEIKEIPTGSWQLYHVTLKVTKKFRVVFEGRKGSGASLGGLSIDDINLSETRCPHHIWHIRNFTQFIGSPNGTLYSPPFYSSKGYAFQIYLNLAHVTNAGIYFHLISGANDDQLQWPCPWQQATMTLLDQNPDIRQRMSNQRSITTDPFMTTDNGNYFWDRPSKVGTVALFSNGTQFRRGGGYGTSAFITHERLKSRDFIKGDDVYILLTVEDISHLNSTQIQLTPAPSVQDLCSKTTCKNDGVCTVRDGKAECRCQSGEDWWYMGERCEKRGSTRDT
Test: cell-based or functional assay

Binder | IC50, inhibition of activated Meprin beta on fluorescent substrate PEPDAB022 [nM]
B1 | 3800
B2 | 5700
B3 | 200
B4 | 7400
B5 | 2800

Biological target: T2, ADAM9 (human or mouse ADAM9, enzyme of the in vitro inhibition assay) (human or mouse, UniProt Q13443 206-697, limits assumed)
T2 sequence (looked up): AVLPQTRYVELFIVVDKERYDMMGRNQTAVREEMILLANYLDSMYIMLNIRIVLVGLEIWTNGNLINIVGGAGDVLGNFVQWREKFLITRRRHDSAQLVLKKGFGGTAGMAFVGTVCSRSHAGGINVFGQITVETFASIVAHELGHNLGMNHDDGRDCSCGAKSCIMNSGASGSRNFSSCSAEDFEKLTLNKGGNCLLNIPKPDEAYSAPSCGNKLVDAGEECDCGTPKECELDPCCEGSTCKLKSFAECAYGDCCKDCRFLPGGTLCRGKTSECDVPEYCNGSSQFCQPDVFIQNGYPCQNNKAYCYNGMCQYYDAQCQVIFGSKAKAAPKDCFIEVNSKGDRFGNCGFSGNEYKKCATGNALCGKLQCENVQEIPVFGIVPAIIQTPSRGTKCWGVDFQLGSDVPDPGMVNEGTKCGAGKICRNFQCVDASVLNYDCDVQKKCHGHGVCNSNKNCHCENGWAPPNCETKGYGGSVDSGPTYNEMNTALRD
Test: cell-based or functional assay

Binder | IC50, inhibition of ADAM9 activity; wild type prodomain assayed 1 week after dialysis, when dimer formation had occurred [nM]
B3 | 120

Biological target: T2, ADAM9 (human or mouse ADAM9, enzyme of …)
Test: cell-based or functional assay
Remark: another data set of the same source

Binder | IC50, inhibition of ADAM9 activity on FRET substrate PEPDAB064; prodomain from inclusion bodies [nM] | IC50, inhibition of ADAM9 activity on FRET substrate PEPDAB064; prodomain from soluble fraction [nM] | IC50, inhibition of ADAM9 activity on FRET substrate PEPDAB064; prodomain refolded from inclusion bodies (aggregating) [nM]
B6 | 60 | – | –
B7 | 16 | – | –
B8 | 39.9 | – | –
B9 | 185 | – | –
B3 | 20 | – | –
B4 | 41 | 39 | –
B10 | 33 | – | –
B11 | 136 | – | –
B12 | 181 | – | –
B13 | > 200 | 13.8 | –
B14 | 46 | – | –
B15 | 125 | – | –
B16 | 40.5 | – | –
B17 | – | 49 | > 200
B18 | 29 | – | –
